Experimental data taken from patent US7585498B2, “Regulation of adenovirus DNA packaging by IPTG” (The Research Foundation of State University of New York, priority 2001, dated 2009).

B1: LacWT: M45 epitope-tagged wild type E. coli Lac repressor protein in whole cell extract of transfected 293 cells (protein)
chain: MKPVTLYDVAEYAGVSYQTVSRVVNQASHVSAKTREKVEAAMAELNYIPNRVAQQLAGKQSLLIGVATSSLALHAPSQIVAAIKSRADQLGASVVVSMVERSGVEACKAAVHNLLAQRVSGLIINYPLDDQDAIAVEAACTNVPALFLDVSDQTPINSIIFSHEDGTRLGVEHLVALGHQQIALLAGPLSSVSARLRLAGWHKYLTRNQIQPIAEREGDWSAMSGFQQTMQMLNEGIVPTAMLVANDQMALGAMRAITESGLRVGADISVVGYDDTEDSSCYIPPLTTIKQDFRLLGQTSVDRLLQLSQGQAVKGNQLLPVSLVKRKTTLAPNTQTASPRALADSLMQLARQVSRLESGQ
modifications: left off: small tags and cut ends

Tests used:
N52.E6 cells = test: Generation of virus stocks with IPTG in the media; assay type: cell-based, human; conditions: 2 mM IPTG in the media
Description: Towards the development of an all-inclusive helper virus whose packaging is specifically and selectively repressed while providing early and late gene products for complementation in trans of a gutted virus, the following recombinant Ad was constructed (FIG. 14). Ad-AV-VII(lac)^2-LacWT contains the AV-VII(lac)^2 minimal domain in place of the WT packaging domain as well as a CMV-M45-LacWT expression cassette. Ad-AV-VII^2-LacWT serves as a control, and contains the AV-VII^2 minimal domain without Lac binding sites, as well as the CMV-M45-LacWT expression cassette. These viruses were plaque purified and grown in N52.E6 cells. N52.E6 cells are a human amniocyte cell line transformed with Ad E1A and E1B sequences (Schiedner, Hertel et al. 2000). These cells contain only Ad nts 505-3522 and share no homologous sequence with the viral DNA constructs, thus eliminating the possibility of the generation of replication competent adenovirus (RCA) by recombination with Ad sequences present in other E1-containing cell lines. To generate stocks of these viruses, they were grown in N52.E6 cells with IPTG in the media at a concentration of 2 mM. IPTG is required in the media, as these viruses express Lac repressor protein that is able to bind to lac binding sites within the packaging domain and suppress packaging.

[1] = test system: AV-VII(lac)^2 dimer probe; test: Gel mobility shift assay, AV-VII(lac)^2 dimer probe; conditions: whole cell extract of transfected 293 cells
[2] = test system: lac binding site monomer probe; test: Gel mobility shift assay, lac binding site monomer probe; conditions: whole cell extract of transfected 293 cells

Molecule | growth of Lac repressor expressing viruses (N52.E6 cells) | AV-VII(lac) dimer binding activity [1] | Lac site monomer binding activity [2]
CC(C)S[C@@H]1O[C@H](CO)[C@H](O)[C@H](O)[C@H]1O [IPTG, isopropyl-β-D-thiogalactopyranoside] | allowed for growth of these viruses |  | 
B1 |  | detected | detected
